Tests used:
[1] = target: T1, PTP-NP extracellular domain marked with an immunoglobulin tag (mouse, UniProt P80560 28-600); experiment: in vitro binding of the two differently tagged extracellular domains (data not shown)
T1 construct: not shown: immunoglobulin tag
T1 chain: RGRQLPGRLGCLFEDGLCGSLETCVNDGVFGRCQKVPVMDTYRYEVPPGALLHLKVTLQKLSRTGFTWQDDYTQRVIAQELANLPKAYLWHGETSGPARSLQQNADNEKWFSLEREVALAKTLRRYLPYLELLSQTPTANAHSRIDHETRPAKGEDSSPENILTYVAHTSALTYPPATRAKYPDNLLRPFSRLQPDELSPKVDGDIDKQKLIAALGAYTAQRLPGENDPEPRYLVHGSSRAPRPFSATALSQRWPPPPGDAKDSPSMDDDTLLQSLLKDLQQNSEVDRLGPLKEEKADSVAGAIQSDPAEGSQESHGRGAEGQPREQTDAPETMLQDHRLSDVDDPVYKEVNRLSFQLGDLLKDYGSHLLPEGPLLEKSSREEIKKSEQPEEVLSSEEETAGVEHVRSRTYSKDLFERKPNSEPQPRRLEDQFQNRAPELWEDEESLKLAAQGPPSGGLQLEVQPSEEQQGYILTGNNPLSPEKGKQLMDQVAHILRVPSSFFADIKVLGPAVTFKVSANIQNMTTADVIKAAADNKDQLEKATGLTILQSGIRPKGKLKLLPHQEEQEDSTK

[2] = target: T2, PTP-NP (on cells transfected with PTP-NP) (mouse, UniProt P80560 28-1001); experiment: NP-AP probe on cells transfected with PTP-NP (data not shown)
T2 construct: also called PTP-NP type 1; neural and pancreatic receptor protein tyrosine phosphatase
T2 chain: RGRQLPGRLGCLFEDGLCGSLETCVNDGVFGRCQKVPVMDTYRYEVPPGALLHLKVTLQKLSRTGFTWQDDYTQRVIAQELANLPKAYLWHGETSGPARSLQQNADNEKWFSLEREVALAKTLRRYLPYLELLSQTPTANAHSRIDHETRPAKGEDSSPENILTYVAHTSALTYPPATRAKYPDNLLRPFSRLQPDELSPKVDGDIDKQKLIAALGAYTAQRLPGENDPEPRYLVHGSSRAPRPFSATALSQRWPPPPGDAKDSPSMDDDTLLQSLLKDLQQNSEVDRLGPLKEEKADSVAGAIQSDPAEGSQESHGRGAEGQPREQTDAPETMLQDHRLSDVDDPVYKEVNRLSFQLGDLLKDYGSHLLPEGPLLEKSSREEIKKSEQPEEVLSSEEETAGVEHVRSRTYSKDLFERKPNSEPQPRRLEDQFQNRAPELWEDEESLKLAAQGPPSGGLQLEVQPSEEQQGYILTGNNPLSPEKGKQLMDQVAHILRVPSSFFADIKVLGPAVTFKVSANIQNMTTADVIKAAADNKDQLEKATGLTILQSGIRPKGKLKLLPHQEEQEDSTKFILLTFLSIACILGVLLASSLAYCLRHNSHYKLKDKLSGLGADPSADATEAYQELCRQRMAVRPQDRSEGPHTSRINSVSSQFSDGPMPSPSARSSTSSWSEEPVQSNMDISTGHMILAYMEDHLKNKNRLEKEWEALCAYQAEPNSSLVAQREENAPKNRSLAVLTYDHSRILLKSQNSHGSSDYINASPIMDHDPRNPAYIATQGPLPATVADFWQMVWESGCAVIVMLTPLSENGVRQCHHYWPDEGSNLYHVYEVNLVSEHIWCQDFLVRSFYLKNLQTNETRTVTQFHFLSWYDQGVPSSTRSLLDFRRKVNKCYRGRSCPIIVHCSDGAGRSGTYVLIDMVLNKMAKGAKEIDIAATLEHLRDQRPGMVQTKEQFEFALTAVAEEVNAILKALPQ

binding result [1]: no binding | binding result [2]: no binding
B1: NP-AP fusion protein (extracellular domain of PTP-NP fused to an alkaline phosphatase tag) (other)
chain: RGRQLPGRLGCLFEDGLCGSLETCVNDGVFGRCQKVPVMDTYRYEVPPGALLHLKVTLQKLSRTGFTWQDDYTQRVIAQELANLPKAYLWHGETSGPARSLQQNADNEKWFSLEREVALAKTLRRYLPYLELLSQTPTANAHSRIDHETRPAKGEDSSPENILTYVAHTSALTYPPATRAKYPDNLLRPFSRLQPDELSPKVDGDIDKQKLIAALGAYTAQRLPGENDPEPRYLVHGSSRAPRPFSATALSQRWPPPPGDAKDSPSMDDDTLLQSLLKDLQQNSEVDRLGPLKEEKADSVAGAIQSDPAEGSQESHGRGAEGQPREQTDAPETMLQDHRLSDVDDPVYKEVNRLSFQLGDLLKDYGSHLLPEGPLLEKSSREEIKKSEQPEEVLSSEEETAGVEHVRSRTYSKDLFERKPNSEPQPRRLEDQFQNRAPELWEDEESLKLAAQGPPSGGLQLEVQPSEEQQGYILTGNNPLSPEKGKQLMDQVAHILRVPSSFFADIKVLGPAVTFKVSANIQNMTTADVIKAAADNKDQLEKATGLTILQSGIRPKGKLKLLPHQEEQEDSTK
notes: Used as unpurified supernatant of transfected COS cells; also called NP-AP probe; not shown: limits and

From patent US6399326 (Harvard, dated 2002)
